ED50 [ng · mL^-1], residual activity, CTLL-2 proliferation and Inactivation factor (ED50 of the product divided by ED50 of the muIL-4 control), CTLL-2 proliferation data for two substances are collected here from patent US20250025541A1.

This test deals with IL-4Ra of CTLL-2 cells (UniProt P16382). Kind of test: cell-based or functional assay.

Turning to “muIL-4 immunogenic product (CRM197) (from UniProt P07750 21-140; P00587 26-560)”, the ED50 [ng · mL^-1], residual activity, CTLL-2 proliferation came to 620 ng/mL and the Inactivation factor (ED50 of the product divided by ED50 of the muIL-4 control), CTLL-2 proliferation is 370.
Substance muIL-4 immunogenic product (KLH) registered an ED50 [ng · mL^-1], residual activity, CTLL-2 proliferation of 21.5 ng/mL and an Inactivation factor (ED50 of the product divided by ED50 of the muIL-4 control), CTLL-2 proliferation of 21.
